Data: patent publication US20200108125A1

Biological target: TrkB (mouse) (UniProt P15209)
Test: cell-based or functional assay

UniProt P15209, sequence (P15209 32-821): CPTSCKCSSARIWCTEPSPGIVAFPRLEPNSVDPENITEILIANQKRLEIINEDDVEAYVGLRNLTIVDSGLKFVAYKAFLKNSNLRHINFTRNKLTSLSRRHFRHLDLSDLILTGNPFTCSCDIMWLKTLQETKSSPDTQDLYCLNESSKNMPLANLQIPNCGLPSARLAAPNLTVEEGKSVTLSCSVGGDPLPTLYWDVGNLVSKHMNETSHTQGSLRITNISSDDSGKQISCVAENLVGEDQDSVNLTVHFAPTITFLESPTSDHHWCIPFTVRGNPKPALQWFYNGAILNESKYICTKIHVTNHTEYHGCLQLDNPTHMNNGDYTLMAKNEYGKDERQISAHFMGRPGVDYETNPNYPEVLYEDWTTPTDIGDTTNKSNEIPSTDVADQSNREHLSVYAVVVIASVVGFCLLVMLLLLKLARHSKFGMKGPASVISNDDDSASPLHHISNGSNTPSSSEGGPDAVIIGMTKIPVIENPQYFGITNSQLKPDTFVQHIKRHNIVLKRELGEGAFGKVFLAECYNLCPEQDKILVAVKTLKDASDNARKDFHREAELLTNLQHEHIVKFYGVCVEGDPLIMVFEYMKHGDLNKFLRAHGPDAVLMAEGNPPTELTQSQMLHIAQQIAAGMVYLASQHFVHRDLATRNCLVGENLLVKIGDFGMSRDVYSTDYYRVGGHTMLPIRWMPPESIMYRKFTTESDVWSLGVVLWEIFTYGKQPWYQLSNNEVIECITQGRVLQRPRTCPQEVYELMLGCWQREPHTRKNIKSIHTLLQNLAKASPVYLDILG

Fndc5 gene expression (qPCR) in primary cortical neurons stimulated overnight with BDNF (0.1-100 ng/ml); lowest concentration with a significant reduction: 1 ng/mL
Substance: Recombinant human BDNF (from UniProt P23560 129-247) (ligand)
